From the nanobody polyreactivity screen of Harvey et al. (2022)

Assay: yeast display, Sf9 membrane polyspecificity reagent, FACS + sequencing; frameworks hold sequencing errors
Method in brief: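 Galactose-induced (36–48 hours) yeast carrying a synthetic nanobody display library were exposed to 10% biotinylated, detergent-solubilized Sf9 membrane reagent at 4 °C for 1 hour. FACS followed streptavidin microbead enrichment, using low and high (top ~1%) gates for expression (anti-HA) and reagent binding (streptavidin). Colony PCR, MiSeq 2 × 250 sequencing and CDR-length filtering followed. Labels for polyreactivity reflect the gate of origin.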

| Sequence | polyreactivity (PSR sort gate) |
| --- | --- |
| QVQLVESGGGLVQAGGSLRLSCAASGRIFLFYAMGWYRQAPGKERELVASITSSGGDTSYYADSVKGRFTISLDNAKNTVYLQMNSLKPEDNAVYYCASRPWTSWRYYYWGQGTQVTVSS | high polyreactivity |
| QVQLVESAGGLVQAGGSLRLSCAASGYTLYLNAMGWYRQAPGKERELVARISGGGSTNYADSVKGRFTISRDNAKNTVYLQMNSLKPEDTAVYYCAASIFAYGYRSFQLDYWGQGTQVTVSS | low polyreactivity |
| QVQLVESGGGLVQAGGSLRLSCAASGSIFFVYDMGWYRQAPGKERELVAGIRWSGGRTSYADSVKGRFTISRDNAKNTVYLQMNRLKPEDAAVYYCAADPRSYFTSEYWGQGTQVTVSS | high polyreactivity |
| QVQLVESGGGLVQAGGSLRLSCAASGITFSHNAMGWYRQAPGKERELVAAITRSGGSTYYADSVKGRFTISRDNAKNTVYLQMNCLKPEDTAVYYCATEDYYRQYGYWSLSRMDHWGQGTQVTVSS | low polyreactivity |
| QVQLLESGGGLVKAGGCRRLSCAASGSTLTPYTMGWYSEAPGIERELVAAMTQCGGTTYYADSVKGRFTISRDNAQNTVYVQMNSLKPEDTAVYYCAARSYGSTSPIRVQLYYWGQGTQVTVSS | high polyreactivity |
| QVQLVESGGGLVQAGGSLRLSCAASGNTFPPNAMGWSRQAPGKERELVAAISWSGDSTYYADSVKGRFTISRDNAKNTVYLQMNSLKPEDTAVYYCAAAIFGEYEYWGQGTQVTVSS | low polyreactivity |
| QVQLVESGGGLVQAGGSLRLSCAASGRIFLVYAMGWYIQAPGKERDLVASISSRGSSTNYADSVKGRFTISRDNANNTDYLQMNSLKPEDTAVYYCAAGVYRPRYQSTAYDYWGQGTQVTVSS | high polyreactivity |
| QVHLVESGGGLVQAGGSLRLSCAASGSTILFYAMGWYRQAPGKERELVATISRGGSTYYADSVKGRFTISRDNAKNTVYLEMNSLKPEDTAVYYCAARATRVTIAPRYGYWGQGTQVTVSS | low polyreactivity |
| QGQHVESGGGLVQAGGSLPLSCAASGFIFNLYAMGWSRQAPGKERELVAAISSGGGTSYADSVKGRFTISRDNAKNTVYLQMNTLKPEDTADYYCAARAWYRVSAYDYWGQGTQVTVSS | high polyreactivity |
| QVQLVESGGGLVQAGGSLRLSCAASGSIFPAYAMGWYRQAPGKERELVAAITDRCGSTYYADSVKGRFTISRDNANNTVSLQMNSLKPEDTYWGQGTQVTVSS | low polyreactivity |
| QVQLVESVGGLVQAGGSLRLSCAASGFIFGYNAMGWYRQAPGKERELVAAIDSGDSTYYADSVKGRFTISRDNAKNTVYLQMNSLKPEDTAVYFCATDVTFVYDFGYFQYDYWGQGTQVTVSS | low polyreactivity |
| QVQLVESGGGLVQAGGSLRLSCAASGSTFYDYAMGWYRQAPGKERELVAAISQSGGSTYYADSVKGRFTISRDNAKNTVYLQMNSLKPEDTAVYYCAADSGYSLYDYWGQGTQVTVSS | low polyreactivity |
| QVQLVESGGGLVQAGGSLRLSCAASGNTFLYYAMGWYRQAPGKEMELVASINLSDGSTYYADSVKGRFTISRDNAKNTVYLQMNSLKPEDTAVYYCAAVYGGYTIYDYWGQGTQVTVSS | low polyreactivity |
| QVQLVESGGGLVQEGGSLRLSCAASGGTFYVNDMGWYRQAPGKERELVATITSGDSTNYADSVKGRFTISRDNAKNTVYLQRNCLKPEDTAVYYCNARGDVIVTPPKFSFNYVYWGQGTQVTVSS | low polyreactivity |
| QDQVVESGGGLVQAGGSVRLSCADSGSIFWRNAMGWYRQAPGKEREWVAAITSGGTTNYADSVKGRFTLSRDNAKNTVYLQLNTQKPEVTAGDYCATGASDLRRYDHPHSDVDYWGQGTQVTVSA | low polyreactivity |
| QVQLVESGGGLVQAGGSLRLSCAASGRIVADYAMGWYRQAPGKERELVAAIRGSGGDTYYADSVKGRFTISRDNAKNTDYLQMNSLKPEDTAVYYCNAVDTYDLDNDYWGQGTQVTVSS | low polyreactivity |
| QVQLVESGGGLVQAGGSLRLSCAASGFTFNYYPMGWYRQAPGKERELVAAIDSGGNTYYADSVKGRFTISRDNAKNTVYLQMNSLKPEDTAVYYCAAYRDYQYDFWGQGTQVTVSS | low polyreactivity |
| QVQLVESGGGLVQAGGSLRLSCAASGFIFRYYAMGWYTQAPGKERELVAAISYSGGSTYYADSVKGRFTITRDNAKNTVYLQMNSLKPEDTAVYYCAAVTVKSNQYLYYVYPYGMGYWGQGTQVTVSS | high polyreactivity |
| QVQLVESGGGLVQAGGSLRLSCAASGSTFSGNAMGWYRQAPGKERELVAAITSSGGSTYYADSVKGRFTISRDTAKNTVYLQMNSLKPEDTAVYYCAAKSRRTRRSYYWGQGTQVTVSS | high polyreactivity |
| QVQLVESGGGLVQAGGSLRLSCAASGSLIGQNAMGWYRQAPGKERELVATISRSGARTYYADSVKGRFTISRDIAKNTVYLQMNSLKPEDTAVYYCAARLLSVGVPMYSWGQGTQVTVSS | high polyreactivity |
| QVQLVESGGGLVQAGGSLRLSCAASGSIFLAYPMGWYRQAPGKEREFVAAISFSDGSTYYADSVKGRFTISRDNAKNTVYLQMNSLKPEDTAVYYCNKRASPDDYDYWGQGTQVTVSS | low polyreactivity |
| QVQLVESGGGLVQAGGSLRLSCAASGSTSMSYVKGWYRQAPGKERELVASITSSGGSTYYADSVKGLFTISRDNAKNTVYLQMNSLKPEDTAVYYCNARSYIYPFSPTSYYRYYWGQGTQVTVSS | high polyreactivity |

| Sequence | polyreactivity (PSR sort gate) |
| --- | --- |
| QVQLVESGGGLVQAGGSLRLSCAASGSIFIGYAMGWYRQAPGKERELVAAISWSGDSTYYADSVKGRFTISRDNAKNTVYLQMNSLKPEDTAGYYCAADDLDYDNYYQITGEYDYWGQGTQVTVSS | high polyreactivity |
| QVQLVDSGGGLVQAGGSLRLSCAASGSIFAYYTIGWYRQAPRKERELVAAITSGGSTNYADSVKGRFTISRDNAKNTVYLQMNSLKPEDTAVYYCAVQGSRYSYRYGYRFRTMDYWGQGTQVTVSS | high polyreactivity |
| QVQLVESGGGLVQAGGSLRLSSAASGFIFEDYAMGWYREAPGKARELFAAISRRGGSTYYADSVKGRFTISRDNAQNTVYLQMNSLKPEDTADYYCAARKRYRPGERYEYWGQGTQVTVSS | high polyreactivity |
| QVQLVESGGGVVQAGGSLRLSCAATGSTFYSYAMGWYRQAPGKEREFVASITRSGVRTYYADSVKGRFTISRDNAKNTVYLQMNSLKPDDTAFYYCAAERYYFPRSYRYGYWGQGTQVTVSS | low polyreactivity |
| QVQLVESGGGLVQAGGSLRLSCAASGSTFPQYAMGWYRQAPGKERELVAAISARGDSTSYADSVKGRFTISRDNAKNTVYLQMNSLKPEDTAVYYCNAPSRNGFSVTDTPDGYDYWGQGTQVTVSS | low polyreactivity |
| QVKLVESGGGLVQAGGSLRLSCAASGRIFNWYAMGWYRQAPGKERELVARISSGDITSYADSVKGRFTISRDNAKNTVYLQMNSLKPEDTALYYCNDDGFFLNVSPYDYWGQGTQVTVSS | low polyreactivity |
| QVQLQESGGGLVQAGGSLLLSCAASGSISGPHVMGWYRQAPGKEREFVAAINVGANTYYADNVKGRFTISRDNAKNTVYLQMNSLKPEDTAVYYCAAVYYGDIGHEYWGQGTQVTVSC | low polyreactivity |
| QVQLVESGGGLVQAGGSLRLSCAASGLIFWYNAMGWYRQAPGKEREFVAAITSDGGRTYYADSVKGRFTISRDNAKNTVYLQMNSLKPEDTAVYYCTARGYGYLGRKGGYSYGYYYWGQGTQVTVSS | low polyreactivity |
| QVQLVESGGGLVQAGGSLRLSCAASGSIFIYYAMGWYRQAPGKERELVAAISWSGDRTYYADSVKGRFTISRDNAKNTVYLQMNSLKPEDTAVYYCAARVVTPSAFPRYYWGQGTQVTVSS | high polyreactivity |
| QVQLVESGGGLVQAGGSLRLSCAASGSTFYYNTMGWYRQAPGKERELVAAISSGGSTNYADSVKGRFTISRDNAKNTVYLQMNSLKPEDTAVYYCAKRRGGALYAYRYYYWGQGTQVTVSS | high polyreactivity |
| QVQLVESGAGLVQAGGSLRLICAASGRTFYPNAMGWYRQAPGKERELVAAITYSGTRTYYADSVKGRFTISRDNAKNTVYLQMNSLKPEDTAVYYCAAVVGKIGFNYWGQGTQVTVSS | high polyreactivity |
| QVQLVESGGGLVQAGGSLRLSCAASGSIFPHNAMGWYRQAPGKERVLVASITSRGGITYYADSVKGRFTISRDNAKNTVYLQMNSLKPEDTAVYYCAADLYIYPYDYWGQGTQVTVSS | low polyreactivity |
| QVQHVESGGGLVQAGGSLRLSCAASGRIFVPYVMGWYRQAPGKERELVASISDSDTSTYDADSVKGRFTISRDNAKTTVYLQMNSLKPEDTAVYYCNVDYWGKGTQVTVSS | low polyreactivity |
| QVQLVESGGGLVQAGGSLRLSCAASGRTLRRYAMGWYRQAPGKERELVAAISRSGSSTYADSVKGRFTISRDNAKNTVSLQMNSLKPEDTAVYYCNAYQPRYGYWGQGTQVTVSS | high polyreactivity |
| QVQLVESGGGLVQAGGSLRLSCAASGRTFDYNAMGWYRQAPGKERELVADISNGGTTSYADSVKGRFTISRDNAKNTVYLQMNSLKPEDTAVYYCATLYDWSSFANSYWYFGWEEDYWGQGTQVTVSS | low polyreactivity |
| QVQRVESGGGLGLAGGSLRLSCAASGITFVLYALGGYRQAPGKERALVASITWDATDTYYADSVKGRFTISRDNAKNTEYIPMNSLKPDDTAVSYCNAAYYNYWWLEYDYWGQGTQVTVSS | high polyreactivity |
| QVQLVESGGCIVQAGGSLRLSCAASGRTFRAYAMGWYRQAPGKEREFVAAITKRGGGTYYADSVKGRFTISRDNAKNTVYLQMNILKPEDTAVYYCAAESGSWYSRMDYWGQGTQVTVSS | high polyreactivity |
| QVQLVESGGGLVQAGGSLRLSCAASGRIFYPYAMGWYRQAPGKERELVAAISSSGGSTYYADSVKGRFTISRDNAKNTVYLQMNSLKPEDTAVYYCNKYSYTYQNPYDSWGQGTQVTVSS | high polyreactivity |
| QVQLVESGGGLVQAGGSLRLSCAASGSTSAWYAMGWYRQAPGKERQLVATISSRGGSTYYADSVKGRFTISRDNAKNTVYLQMNSLKPEDTAVYYCAARIGATYWVDWTHRAYDYWGQGTQVTVSS | high polyreactivity |
| QGQLVESGGGLVQAGGRLRLSCAASGSTLWRYAMGWYRQAPRKERELVAGISRGGGSTYYADSVKGRFTISRDNAKNTVYLQMYSLKPEDTGVYYCATPVNQVRGAFDYWGQGTQVSVSS | low polyreactivity |
| QVQLVESGGGLVQARGSLRLSCAASGSTFIPNTMGWSRQAPGKERELVAAISRRGGSKNYADSVKGRFTISRDNAKNTVYLQMNSLNPEDTAVYYCAAASPRRYRYDYWGQGTQVTVSS | high polyreactivity |
